From patent publication US20110135672A1

Tests used:
[1] = target: ILT2-PILRβ chimera on NFAT-GFP reporter cells (UniProt Q8NHL6); assay: cell-based or functional assay
[2] = target: ILT4 receptor on dendritic cells of ILT4 transgenic mice (UniProt Q8N423); assay: cell-based or functional assay
Chain of ILT4 receptor on dendritic cells of ILT4 transgenic mice (Q8N423 22-597 limits assumed): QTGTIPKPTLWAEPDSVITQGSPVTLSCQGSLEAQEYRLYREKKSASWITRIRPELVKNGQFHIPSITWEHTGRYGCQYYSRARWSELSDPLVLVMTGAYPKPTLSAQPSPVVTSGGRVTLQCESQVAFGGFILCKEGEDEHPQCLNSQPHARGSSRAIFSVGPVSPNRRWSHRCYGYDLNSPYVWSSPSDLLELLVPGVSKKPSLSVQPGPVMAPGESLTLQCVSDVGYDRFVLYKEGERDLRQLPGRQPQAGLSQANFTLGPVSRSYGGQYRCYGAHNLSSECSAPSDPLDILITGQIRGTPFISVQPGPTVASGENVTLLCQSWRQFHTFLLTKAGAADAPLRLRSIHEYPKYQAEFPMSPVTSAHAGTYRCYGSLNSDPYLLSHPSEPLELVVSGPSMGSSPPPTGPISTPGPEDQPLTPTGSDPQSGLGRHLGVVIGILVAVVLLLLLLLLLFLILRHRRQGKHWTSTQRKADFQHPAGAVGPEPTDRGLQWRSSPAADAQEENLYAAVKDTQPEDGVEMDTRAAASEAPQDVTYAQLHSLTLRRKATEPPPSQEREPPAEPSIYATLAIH

Chain of ILT2-PILRβ chimera on NFAT-GFP reporter cells (Q8NHL6 24-461, change not shown): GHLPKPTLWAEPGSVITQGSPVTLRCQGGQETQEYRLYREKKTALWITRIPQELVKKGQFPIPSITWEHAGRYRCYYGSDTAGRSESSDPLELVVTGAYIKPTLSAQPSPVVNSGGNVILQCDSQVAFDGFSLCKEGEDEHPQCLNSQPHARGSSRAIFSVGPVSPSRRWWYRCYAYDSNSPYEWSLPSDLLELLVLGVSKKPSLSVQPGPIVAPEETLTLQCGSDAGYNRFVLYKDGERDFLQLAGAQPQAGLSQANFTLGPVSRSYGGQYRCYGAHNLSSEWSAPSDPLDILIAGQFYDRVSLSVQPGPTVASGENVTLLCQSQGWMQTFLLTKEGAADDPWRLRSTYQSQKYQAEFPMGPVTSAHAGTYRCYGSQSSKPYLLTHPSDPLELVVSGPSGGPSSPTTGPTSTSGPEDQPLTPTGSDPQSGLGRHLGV

| Substance | mean fluorescent intensity (MFI) of GFP at 100 ng/ml immobilized ligand (NFAT-GFP reporter) [1] [MFI] | percentage of GFP-positive cells at 100 ng/ml immobilized ligand (NFAT-GFP reporter) [1] [%] | fold increase of IL-6 transcript in ILT4-positive BMDCs (gene array) [2] [fold] | MFI of GFP at 100 ng/ml immobilized ligand (NFAT-GFP reporter) [1] [MFI] |
| --- | --- | --- | --- | --- |
| HLA-G5 monomer (from UniProt P17693 25-338; P61769 21-119) (ligand) | 7.8 | 5.6 |  |  |
| HLA-G1 tetrameric complexes (from UniProt P17693 25-300; P61769 21-119) (ligand) |  |  | 9.3 |  |
| HLA-G5 dimer (from UniProt P17693 25-338; P61769 21-119) (ligand) |  | 56.8 | 8.9 | 9.9 |
